This series deals with the molecule itself. Description: crystal structure.

B1: K47A mutant of human thymidylate synthase (enzyme)
chain: MPVAGSELPRRPLPPAAQERDAEPRPPHGELQYLGQIQHILRCGVRADDRTGTGTLSVFGMQARYSLRDEFPLLTTKRVFWKGVLEELLWFIKGSTNAKELSSKGVKIWDANGSRDFLDSLGFSTREEGDLGPVYGFQWRHFGAEYRDMESDYSGQGVDQLQRVIDTIKTNPDDRRIIMCAWNPRDLPLMALPPCHALCQFYVVNSELSCQLYQRSGDMGLGVPFNIASYALLTYMIAHITGLKPGDFIHTLGDAHIYLNHIEPLKIQLQREPRPFPKLRILRKVEKIDDFKAEDFQIEGYNPHPTIKMEMAV
For the protein B1, the binding result is reported as “binds”.

Values taken from article PMC8346289 (Journal of medicinal chemistry, 2014).
